From patent US7807387B2, “Biological agent that causes IL-6 receptor release” (Meyer Pharmaceuticals LLC, priority 2003, dated 2010)

Tested on: collagen-induced arthritis
Assay: Collagen-induced arthritis, treatment from 3 days before collagen
Type: in vivo, DBA/1 LacJ mice
Protocol: Collagen-induced arthritis is a standard model for evaluating potential therapeutic agents for rheumatoid arthritis (Courtenay et al., Nature 283:666, 1980; Williams et al., Proc Natl Acad Sci USA 89:9784, 1992; Gerlag et al., J Immunol 165:1652, 2000). Arthritis was induced in 7-9 week old female DBA/1 LacJ mice by immunization with collagen. On day 0, the mice were injected at the base of the tail with 100 μg bovine type II collagen in complete Freund's adjuvant. On day 7, mice were boosted with an intraperitoneal injection of 100 μg collagen. To enhance and synchronize synovitis, the mice were injected subcutaneously on day 14 with 100 μg of lipopolysaccharide (LPS). Joint swelling was monitored in a blinded fashion by measuring the diameter in all 4 paws and both ankles using a constant pressure gauge. Arthritis Index was also determined on the following scale, and summed for all extremities. 0≡normal; 1≡one digit swollen; 2≡more than one digit swollen; 3≡joint distortion; 4≡ankylosis. The arthritis experiments were conducted under contract by Calvert Preclinical Services, Inc., Olyphant Pa.
As is typical in this model, not all animals respond to the collagen challenge.

B1: MP8: polypeptide having the sequence of SEQ. ID NO:41 (usually with a HIS tag); cytokine receptor releasing protein expressed in E. coli (protein, listed as Homo sapiens)
chain: WIQRIRHEGNSTVYEWRTGTEPSVVERPHLEELPEQVAEDAIDWGDFGVEAVSEGTDSGISAEAAGIDWGIFPESDSKDPGGDGIDWGDDAVALQITVLEAGTQAPEGVARGPDALTLLEYTETRNQFLDELMELEIFLAQRAVELSEEADVLSVSQFQLAPAILQGQTKEKMVTMVSVLEDLIGKLTSLQLQHLFMILASPRYVDRVTEFLQQKLKQSQLLALKKELMVQKQQEALEEQAALEPKLDLLLEKTKELQKLIEADISKRYSGRPVNLMGTSL
modifications: HIS tag
notes: ID NO:41 (usually with a HIS tag); cytokine receptor releasing protein expressed in E. coli
300,000 FU daily
  effectiveness compared with Enbrel: at least as effective as a scaled dose of Enbrel®
300,000 FU daily starting 3 days before first collagen injection, 8 out of 9 controls affected
  animals affected by arthritis: none of the animals treated with MP8 were affected
300,000 FU daily, prophylactic
  joint swelling and arthritis index: prevented the animals from showing any measurable signs of the disease
